From patent US20230365667A1 (Merck Sharp & Dohme, published 2023)
Changes are numbered by the printed parent chain.

Molecular target: T1, Abeta peptide (40-amino acid Abeta peptide, SEQ ID NO: 1), biotinylated (human, N-terminal biotin or C-terminal lysine-linked biotin, separated from the peptide by a PEG6 linker)
T1 construct: Synthesized by Genscript; also called amyloid beta; test peptide
Experiment: BLI (Octet HTX), biotinylated Abeta on streptavidin sensors, 1 uM VHH, 1:1 fit
Method: Binding affinity was measured using Biolayer Interferometry (BLI) with a ForteBio Octet HTX instrument. Biotinylated antigen was loaded onto streptavidin biosensors at a concentration of 100 nM in kinetics buffer (PBS+1% BSA). The binding experiments were performed with the following steps: 1) baseline in kinetics buffer for 30 seconds, 2) loading of antigen for 180 seconds, to achieve a loading response of at least 1 nm, 3) baseline for 60 seconds, 4) association of 1 μM VHH for 300 seconds, and 5) dissociation into kinetics buffer for 180 seconds. Curves were fit to a 1:1 binding model using the ForteBio software. A negative control was included in all plates, which was un-transfected mammalian cells subjected to the same purification process, to account for the effect of any carryover protein contaminants from cell culture.

T1 sequence (peptide, as listed by the source): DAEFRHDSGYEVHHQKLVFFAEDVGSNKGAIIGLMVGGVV

B1: vhhLib02-93 (VHH)
VHH: EVQLVESGGGLVQPGGSLRLSCAASGFTFSDYHMSWYRQAPGKQREPVSVINSGGYTYYADSVKGRFTISRDNSKNTLYLQMNSLRAEDTAVYYCARAQAAHYLYGYFDIWGQGTLVTVSS
notes: The entry as printed includes HHHHHH
Kd: 469 nM
koff: 0.00314 s⁻¹
kon: 6700 M⁻¹ s⁻¹

B2: vhhLib01-86 (VHH)
VHH: QVQLVESGGGLVQPGGSLRLSCAASGSIFSANHMGWYRQAPGKQRELVAAILSGGVTNYADSVKGRFTISRDNAKNTVYLQMNSLKPEDTAVYYCARGQVDTKYGYYYFDSWGQGTLVTVSS
notes: The entry as printed includes a doubled TLVTVSS and HHHHHH; also called vhbLib01-86
Kd: 430 nM
koff: 0.0033 s⁻¹
kon: 7670 M⁻¹ s⁻¹

B3: vhhLib02-64 (VHH)
VHH: EVQLVESGGGLVQPGGSLRLSCAASGFTFSGYFMSWYRQAPGKQRELVSVINSGGSTYYADSVKGRFTISRDNSKNTLYLQMNSLRAEDTAVYYCARGRVATGGGYGFVHYFDVWGQGTLVTVSS
notes: as for B1
Kd: 210 nM
koff: 0.0029 s⁻¹
kon: 13800 M⁻¹ s⁻¹

B4: vhhLib01-49 (VHH)
VHH: QVQLVESGGGLVQPGGSLRLSCAASGSIFSHNTMGWYRQAPGKQRELVAAINSGGSTNYADSVKGRFTISRDNAKNTVYLQMNSLKPEDTAVYYCARYIQTYTWGYFDYWGQGTLVTVSS
notes: as for B1
Kd: 116 nM
koff: 0.000734 s⁻¹
kon: 6320 M⁻¹ s⁻¹

B5: vhhLib02-91 (VHH)
VHH: EVQLVESGGGLVQPGGSLRLSCAASGFTVSDYHMSWYRQAPGKQRELVSVILSGGRTYYADSVKGRFTISRDNSKNTLYLQMNSLRAEDTAVYYCARADAIFPWFDVWGQGTLVTVSS
notes: The entry as printed includes HHHHHH; also called 09BHK
Kd: 43.1 nM
koff: 0.00046 s⁻¹
kon: 10700 M⁻¹ s⁻¹

B6: vhhLib05-49 (VHH)
VHH: EVQLLESGGGLVQPGGSLRLSCAASGFTFSSYAMSWVRQAPGKQREWVSAISGSGGSTYYADSVKGRFTISRDNSKNTLYLQMNSLRAEDTAVYYCARDTNQPYHGRYVYTYDFDVWGQGTLVTVSS
notes: also called 20BHK
Kd: 5.3 nM
koff: 6.73e-05 s⁻¹
kon: 12600 M⁻¹ s⁻¹

B7: vhhLib01-75 (VHH)
VHH: QVQLVESGGGLVQPGGSLRLSCAASGSIFSSNRMGWYRQAPGKQRELVAAIFSGGHTNYADSVKGRFTISRDNAKNTVYLQMNSLKPEDTAVYYCARPVDWSGPFDIWGQGTLVTVSS
notes: as for B1
Kd: 185 nM
koff: 0.00324 s⁻¹
kon: 17500 M⁻¹ s⁻¹

B8: vhhLib05-21 (VHH)
VHH: EVQLLESGGGLVQPGGSLRLSCAASGFTFSNYAMSWVRQAPGKQREWVSVISGNGSSTYYADSVKGRFTISRDNSKNTLYLQMNSLRAEDTAVYYCARLVQLPWVPISAFDVWGQGTLVTVSS
notes: The entry as printed includes a doubled TLVTVSS and HHHHHH; also called 16BHK
Kd: 104 nM
koff: 0.00111 s⁻¹
kon: 10700 M⁻¹ s⁻¹

B9: vhhLib01-34 (VHH)
VHH: QVQLVESGGGLVQPGGSLRLSCAASGSIFSVNRMGWYRQAPGKQRELVAAIISGGATNYADSVKGRFTISRDNAKNTVYLQMNSLKPEDTAVYYCARRPAPNGRYHSWYAFDYWGQGTLVTVSS
notes: as for B1
Kd: 367 nM
koff: 0.00268 s⁻¹
kon: 7320 M⁻¹ s⁻¹

B10: vhhLib02-53 (VHH)
VHH: EVQLVESGGGLVQPGGSLRLSCAASGFTFSRYLMSWYRQAPGKQRELVGAIASGGVTYYADSVKGRFTISRDNSKNTLYLQMNSLRAEDTAVYYCARGNPSERLYYYFDYWGQGTLVTVSS
notes: The entry as printed includes HHHHHH; also called 06BHK
Kd: 42.6 nM
koff: 0.000447 s⁻¹
kon: 10500 M⁻¹ s⁻¹

B11: vhhLib02-37 (VHH)
VHH: EVQLVESGGGLVQPGGSLRLSCAASGFTFSDYVMSWYRQAPGKQRELVSAIISGEDTYYADSVKGRFTISRDNSKNTLYLQMNSLRAEDTAVYYCARYVHKSTWYYFDHWGQGTLVTVSS
notes: The entry as printed includes HHHHHH; also called vhbLib02-37
Kd: 328 nM
koff: 0.00105 s⁻¹
kon: 3210 M⁻¹ s⁻¹

B12: vhhLib05-25 (VHH)
VHH: EVQLLESGGGLVQPGGSLRLSCAASGFTFSSYAMSWVRQAPGKQREWVSAISGSGGSTYYADSVKGRFTISRDNSKNTLYLQMNSLRAEDTAVYYCARHRQADGITYFDIWGQGTLVTVSS
notes: The entry as printed includes a doubled TLVTVSS and HHHHHH
Kd: 23.9 nM
koff: 0.000337 s⁻¹
kon: 14100 M⁻¹ s⁻¹

B13: vhhLib05-14 (VHH)
VHH: B12 VHH with H99L, R100S, Q101I, A102V, G104V, I105V, Y107V, I110V
notes: as for B12
Kd: 39.9 nM
koff: 0.000443 s⁻¹
kon: 11100 M⁻¹ s⁻¹

B14: vhhLib05-5 (VHH)
VHH: B12 VHH with H99L, R100D, Q101Y, A102T, T106N, I110Y
notes: as for B12
Kd: 189 nM
koff: 0.000882 s⁻¹
kon: 4660 M⁻¹ s⁻¹

B15: vhhLib01-58 (VHH)
VHH: QVQLVESGGGLVQPGGSLRLSCAASGSIFSPNHMGWYRQAPGKQRELVAAIYSGGTTNYADSVKGRFTISRDNAKNTVYLQMNSLKPEDTAVYYCARRTFLRGWSGYLPWFDVWGQGTLVTVSS
notes: as for B1
Kd: 264 nM
koff: 0.0045 s⁻¹
kon: 17000 M⁻¹ s⁻¹

B16: vhhLib02-26 (VHH)
VHH: EVQLVESGGGLVQPGGSLRLSCAASGFTFSAYIMSWYRQAPGKQRELVGAIVSGGLTYYADSVKGRFTISRDNSKNTLYLQMNSLRAEDTAVYYCARHWRWYDSNLVFDLWGQGTLVTVSS
notes: as for B1
Kd: 249 nM
koff: 0.0137 s⁻¹
kon: 55000 M⁻¹ s⁻¹

B17: vhhLib05-8 (VHH)
VHH: EVQLLESGGGLVQPGGSLRLSCAASGFTFSSYAMSWVRQAPGKQREWVSAISGSGGRTYYADSVKGRFTISRDNSKNTLYLQMNSLRAEDTAVYYCARHSIPVDGIVAFDHWGQGTLVTVSS
notes: The entry as printed includes a doubled TLVTVSS and HHHHHH; also called 13BHK
Kd: 25.4 nM
koff: 0.000269 s⁻¹
kon: 10600 M⁻¹ s⁻¹

B18: vhhLib05-10 (VHH)
VHH: B17 VHH with R57S, H99V, S100V, I101K, P102V, V103D, G105I, I106V, V107H, H111I
notes: as for B12
Kd: 176 nM
koff: 0.00127 s⁻¹
kon: 7170 M⁻¹ s⁻¹

B19: vhhLib01-3 (VHH)
VHH: QVQLVESGGGLVQPGGSLRLSCAASGSIFSFNLMGWYRQAPGKQRELVAAINSGGSTNYADSVKGRFTISRDNAKNTVYLQMNSLKPEDTAVYYCARDYTVYVSYYDGRFDYWGQGTLVTVSS
notes: as for B1
Kd: 239 nM
koff: 0.00353 s⁻¹
kon: 14800 M⁻¹ s⁻¹

B20: vhhLib05-83 (VHH)
VHH: EVQLLESGGGLVQPGGSLRLSCAASGFTFSNYAMSWVRQAPGKQREWVSAISGSGGSTYYADSVKGRFTISRDNSKNTLYLQMNSLRAEDTAVYYCARLFLQQADGLYYYYAFDPWGQGTPVTVSS
notes: The entry as printed includes a doubled TLVTVSS-like stretch and HHHHHH
Kd: 292 nM
koff: 0.00112 s⁻¹
kon: 3830 M⁻¹ s⁻¹

B21: vhhLib01-2 (VHH)
VHH: QVQLVESGGGLVQPGGSLRLSCAASGSIFSANHMGWYRQAPGKQRELVAAISSGGLTNYADSVKGRFTISRDNAKNTVYLQMNSLKPEDTAVYYCARHQTKIYNLHYYYFDYWGQGTLVTVSS
notes: as for B1
Kd: 212 nM
koff: 0.00632 s⁻¹
kon: 29800 M⁻¹ s⁻¹

B22: vhhLib02-21 (VHH)
VHH: EVQLVESGGGLVQPGGSLRLSCAASGFTFSLYTMSWYRQAPGKQRELVSAISSGGSTYYADSVKGRFTISRDNSKNTLYLQMNSLRAEDTAVYYCARYDYSWWYFDLWGQGTLVTVSS
notes: as for B1
Kd: 244 nM
koff: 0.000724 s⁻¹
kon: 2970 M⁻¹ s⁻¹

B23: vhhLib01-48 (VHH)
VHH: QVQLVESGGGLVQPGGSLRLSCAASGSIFSANIMGWYRQAPGKQRELVAAIVSGGYTNYADSVKGRFTISRDNAKNTVYLQMNSLKPEDTAVYYCARDQDAFDHVGQYFDHWGQGTLVTVSS
notes: as for B1
Kd: 153 nM
koff: 0.00333 s⁻¹
kon: 21800 M⁻¹ s⁻¹

B24: vhhLib05-33 (VHH)
VHH: EVQLLESGGGLVQPGGSLRLSCAASGFTFSSYAMSWVRQAPGKQREWVSAISGSGGSTYYADSVKGRFTISRDNSKNTLYLQMNSLRAEDTAVYYCARLQGVQSDEVYYNYFDVWGQGTLVTVSS
notes: The entry as printed includes a doubled TLVTVSS and HHHHHH; also called vhbLib05-33
Kd: 633 nM
koff: 0.00297 s⁻¹
kon: 4680 M⁻¹ s⁻¹

B25: vhhLib05-78 (VHH)
VHH: B24 VHH with S35T, Q100A, G101T, V102H, Q103V, S104D, D105N, E106G, V107L, Y108G
notes: as for B12
Kd: 214 nM
koff: 0.00133 s⁻¹
kon: 6200 M⁻¹ s⁻¹

B26: vhhLib05-28 (VHH)
VHH: B24 VHH with S25A, Q100S, G101H, V102N, Q103S, S104Q, D105G, E106T, Y108V, V114I
notes: as for B12
Kd: 114 nM
koff: 0.000725 s⁻¹
kon: 6370 M⁻¹ s⁻¹
